Results taken from patent US20150322167A1 (UNIVERSITY OF MASSACHUSETTS, published 2015).
Blank lines part the entries; values can stand above or below the binder they belong to.

Legend:
[1] = target: mouse SOD1 expressed in mouse neuroblastoma cells (MNA) (mouse, UniProt P08228 2-154); assay: IP from mouse neuroblastoma (MNA) cell lysate, immunoblot rabbit anti-SOD1
Experimental: Expression of SOD1 in mouse neuroblastoma cells (MNA) was assessed by SDS-PAGE followed by immunoblot with rabbit anti-SOD1 (lysate). The position of migration of SOD1 as well as position of a non-specific high molecular weight (HMW) band is indicated to the right of the immunoblots. MNA lysates were precipitated with 11 human anti-hSOD1 antibodies as well as a control, isotype matched irrelevant antibody (Neg control) which are listed above the immunoblots.

[2] = target: T1, b-hSOD1-C (amino acids 1 to 116) (human, UniProt P00441 2-117); assay: ELISA, captured b-hSOD1 truncations
T1 construct: also called C truncation; not shown: N-terminal thioredoxin (trx) domain from vector pET32-a-myc; C-terminal myc and 6 histidine tags

[3] = target: T2, b-hSOD1-I (amino acids 39 to 116) (human, UniProt P00441 39-117); assay: ELISA, captured b-hSOD1 truncations
T2 construct: also called I truncation; not shown: N-terminal thioredoxin (trx) domain from vector pET32-a-myc; C-terminal myc and 6 histidine tags

[4] = target: T3, b-hSOD1-B (amino acids 1 to 77) (human, UniProt P00441 2-78); assay: ELISA, captured b-hSOD1 truncations
T3 construct: also called B truncation; not shown: N-terminal thioredoxin (trx) domain from vector pET32-a-myc; C-terminal myc and 6 histidine tags

[5] = target: T4, b-hSOD1-D (amino acids 39 to 153) (human, UniProt P00441 40-154); assay: ELISA, captured b-hSOD1 truncations
T4 construct: also called D truncation; not shown: N-terminal thioredoxin (trx) domain from vector pET32-a-myc; C-terminal myc and 6 histidine tags

b-hSOD1-OX = target: T5, b-hSOD1-OX (oxidized with 10 mM hydrogen peroxide for 24 hours; residues not given ; Oxidised with 10 mM hydrogen peroxide for 24 hours. The oxidised residues are not stated, so the letters are left …); assay: ELISA on coated protein, antibody titrated, OD 405nm
T5 construct: also called oxidized bacterially-expressed hSOD1 (GST fusion); not shown: N-terminal GST domain of pGEX-4T-3 and the vector-derived linker

[6] = target: T6, hSOD1 purified from human erythrocytes (human, UniProt P00441 2-154); assay: Octet QK, hSOD1 coupled to biosensor, antibody in solution
T6 construct: Bought from Sigma; also called E-hSOD1
Experimental: Affinity of antibodies was determined using an Octet QK (ForteBio) biomolecular interaction instrument. […] The Octet QK uses biosensors to assess mass increases/decreases and determine rates of association and disassociation. A biosensor coated with amine-reactive chemistry was introduced into a solution containing E-hSOD1 or b-hSOD1 to covalently link these proteins to the surface of the biosensor. Unbound hSOD1 was washed away and the coated biosensor was introduced into a solution containing anti-SOD1 monoclonal antibodies at which time Kₒₙ was determined. The sensor was then introduced into a buffer solution containing no antibody and the Koff determined Using Kₒₙ and Koff an affinity (KD) was calculated.
Affinity analysis was performed on all 13 lead-candidate anti-hSOD1 human monoclonal antibodies.

[7] = target: T7, bacterially-expressed hSOD1 (human, UniProt P00441 2-154); assay: as above
T7 construct: Not fully metallated, expected to be partly misfolded; also called b-hSOD1; GST-b-hSOD1; not shown: N-terminal glutathione sulfotransferase (GST) domain from vector pGEX-4T-3
T7 sequence (P00441 2-154): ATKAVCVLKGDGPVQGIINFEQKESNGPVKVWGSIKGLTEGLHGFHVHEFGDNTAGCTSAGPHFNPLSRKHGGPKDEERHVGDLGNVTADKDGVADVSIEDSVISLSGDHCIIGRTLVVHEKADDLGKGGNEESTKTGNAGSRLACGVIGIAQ

T2 sequence (P00441 39-117): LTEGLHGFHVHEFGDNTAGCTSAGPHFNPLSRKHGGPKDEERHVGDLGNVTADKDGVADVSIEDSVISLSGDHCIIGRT
T1 sequence (P00441 2-117): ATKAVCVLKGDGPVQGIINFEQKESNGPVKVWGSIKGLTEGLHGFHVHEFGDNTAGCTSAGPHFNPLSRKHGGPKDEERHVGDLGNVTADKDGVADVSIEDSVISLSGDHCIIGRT
T6 sequence (P00441 2-154): as the sequence (P00441 2-154) above
T3 sequence (P00441 2-78): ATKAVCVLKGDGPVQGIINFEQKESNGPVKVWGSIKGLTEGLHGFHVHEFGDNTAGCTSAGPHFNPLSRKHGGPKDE
T4 sequence (P00441 40-154): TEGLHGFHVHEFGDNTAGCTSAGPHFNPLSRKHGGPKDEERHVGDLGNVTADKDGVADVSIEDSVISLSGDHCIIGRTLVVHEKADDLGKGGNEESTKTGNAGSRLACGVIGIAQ
T5 sequence (chain, as listed by the source limits assumed): as the sequence (P00441 2-154) above

binding result [1]: no binding
B1: 311-3 (antibody, V domains shown)
VH: QVQLQQWGAGLLKPSETLSLTCAVYGGSFSGYYWNWIRQPPGMGLEWIGEIHQSGGPHYNPSLKSRVSISVDTSKNQVNLKLSSVTAADTAIYYCTELDDYWGQGTLVTVSS
VL: EIVLTQSPATLSLSPGERATLSCRASQSVSSYLAWYQQKPGQAPRLLIYNASNRATGIPARFSGSGSGTDFTLTIGSLEPEDFAVYYCQQRSNWPRTFGQGTKVEIK
notes: Human IgG kappa monoclonal from HuMab mouse hybridoma

binding result [2]: no binding | binding result [3]: no binding | binding result [4]: no binding | binding result [5]: no binding | binding result (b-hSOD1-OX): binds | Kd [6]: 8.8 nM | Kd [7]: 1.2 nM
B2: 303-8 (antibody, V domains shown)
VH: QVQLVQSGAEVKKPGSSVKVSCKASGGSFSIYVISWVRQAPGQGLEWMGRIIPILGTTNYAQKFQGRVTITADKSTSTAYMELSSLRSEDTAVYYCARPDSPNHSNTFDYWGQGTLVTVSS
VL: DIQMTQSPSSLSASVGDRVTITCRASQGISSWLAWYQQKPEKAPKSLIYGASSLQSGVPSRFSGSGSGTDFTLTISSLQPEDFATYYCQQYNSYPYTFGQGTKLEIK
notes: Human IgG kappa monoclonal from HuMab mouse hybridoma; Conformation-dependent antibody

binding result [1]: no binding
B3: 114-41 (antibody, V domains shown)
VH: QVQLVQSGAEVKTPGASVKVSCKASGYTFTSFGISWVRQAPGQGLEWMGWISVYNDYTNYAQKFQGRVTMTTDTSTSTAYMELRSLRSDDTAMYYCARKRGGDMDYWGQGTLVTVSS
VL: DIQMTQSPSSVSASVGDRVTITCRASQDISSWLAWYQHKPGKAPKLLIYLASSLQSGVPSRFSGSGSGTDFTLTISSLQPEDFATYYCQQANSFPWTFGQGTKVEIK
notes: as for B2

binding result [1]: no binding
B4: 591-33 (antibody, V domains shown)
VH: EVQLVESGGGLVQPGGSLRLSCAASGFTFSRYWMSWVRQAPGKGLEWMANIKQDGSETHYVDSVKGRFTISRDNAKNSLYLQMNSLRAEDTAVYYCAIGDYWGQGTLVTVSS
VL: DIQMTQSPSSLSASVGDRVTITCRASQDISSWLAWYQQKPEKAPKSLIYAASSLQSGVPSRFSGSGSGTDFTLTISSLQPEDFATYYCQQYKSYPLTFGGGTKVEIK
notes: as for B1

binding result [1]: no binding
B5: 591-37 (antibody, V domains shown)
VH: EVQLVQSGGGLVHPGGSLRLSCAGSGFTFSRYALHWVRQAPGKGLEWVSAIGIGGGTFYADSVKGRFTISRDNAKNSLYLQMNSLRAEDMAVYYCARDTYYDFFDAFDIWGQGTMVTVSS
VL: DIQMTQSPSSLSASVGDRVTITCRASQGISSWLAWYQQKPEKAPKSLIYAASSLQSGVPSRFSGSGSGTDFTLTISSLQPEDFATYYCQQYDSYPLTFGGGTKVEIK
notes: as for B1

binding result [1]: no binding
B6: 358-11 (antibody, V domains shown)
VH: QVQLVESGGGVVQPGRSLRLSCAASGFTFSNYGIHWVRQAPGKGLEWVAIIWHDGSNSYYVDSVKGRFTMSRDNSKNTVYLQMNSLRAEDTAVYFCARIIGGAFDIWGQGTMVTVSS
VL: DIQMTQSPSSLSASVGDRVTITCRASQGISSWLAWYQQKPEKAPKSLIYAASSLQSGVPSRFSGSGSGTDFTLTISSLQPEDFATYYCQQYNSYPITFGQGTRLEIK
notes: as for B1

binding result [1]: binds
B7: 358-22 (antibody, V domains shown)
VH: QVQLVESGGGVVQPGRSLRLSCAASGFTFRSYGMHWVRQAPGKGLEWVTLIWYDGSNKYYADSVKGRFTISRDNSKNTLYLQMNSLRVEDTAVYYCAREGFNWDAFDIWGQGTMVTVSS
VL: EIVLTQSPGTLSLSPGERATLSCRASQSVRISYLAWYQQKPGQAPRLLIYGTFSRATGIPDRFSGSGSGTDFTLTISRLEPEDFAVYYCQQYGSSMYTFGQGTKLEIK
notes: as for B2

binding result [1]: no binding
B8: 306-155 (antibody, V domains shown)
VH: EVQLVQSGAEVKKPGESLKISCKGSGYSFTSYWIGWVRQMPGKGLEWMGIIYPGDSDTRYSPSFQGQVTISADKSISTAYLQWSSLKASDTAMYYCARQGSGWYGNYFDYWGQGTLVTVSS
VL: EIVLTQSPGTLSLSPGERATLSCRASQSFSRGYLAWYQQKPGQAPRLLIYGASSRVTGIPDRFSGSGSGTDFTLTISRLEPEDFAVYYCQQYDSSPYTFGQGTKLEIK
notes: as for B2

binding result [2]: no binding | binding result [3]: no binding | binding result [4]: no binding | binding result [5]: no binding | Kd [6]: 3.5 nM | Kd [7]: 19 nM | binding result [1]: binds
B9: 14-173 (antibody, V domains shown)
VH: EVQLVESGGGLVQPGGSLRLSCAASGFTFSSFWMSWVRQAPGKGLEWVANIKHDGSEQDYVDSVKGRFTISRDNAKNSLYLQMNSLRAEDTAVYYCARGGIWFGPWGQGTLVTVSS
VL: VIWMTQSPSLLSASTGDRVTISCRMSQGISSYLAWYQQKPGKAPEVLIYAVSTLQSGVPSRFSGSGSGTDFTLTISCLQSEDFATYYCQQYYSFPYTFGQGTKLEIK
notes: as for B2

binding result [1]: no binding
B10: 597-120 (antibody, V domains shown)
VH: EVHLVESGGGLVQSGGSLRLSCAASGFSISGYWMSWVRQAPGKGLEWVANIKQDGGEKYYGDSVKGRFTISRDNAENSLYLQMSSLRAEDTAVYYCVMAGGLDYWGQGALVTVSS
VL: EIVLTQSPATLSLSPGERATLSCRASQSVSSYLAWYQQKPGQAPRLLIYDASNRATGIPARFSGSGSGTDFTLTISSLEPEDFAVYYCQQRSNWYTFGQGTKLEIK
notes: as for B2

binding result [1]: no binding
B11: 312-19 (antibody, V domains shown)
VH: QVQLVQSGAEVKKPGSSVKVSCKASGGTFNNFVIGWVRQAPGQGLEWMGRIIPILDIANYAQKFQGRVTITADKSTSTVYMELNSLRSEDTAVYYCARTGNYYKPYDYWGQGTLVTVSS
VL: EIVLTQSPDFQSVTPKEKVTITCRASQSIGSSLHWYQQKPDQSPKLLIKYASQSFSGVPSRFSGSGSGTDFTLTINSLEAEDAAAYYCHQSSSLPITFGQGTRLEIK
notes: as for B2
